This is an account of results in US20210300999A1.

Common to all, as to details: remark: other sources report otherwise
Experiment [1] deals with SARS-CoV-2 Spike trimer (Table A) (SARS-CoV-2), P0DTC2. Nature of the experiment: ELISA, purified IgG. A general note: An ELISA detects its analyte on a solid surface through an enzyme-linked reagent.
Experiment [2] concerns the target T1, SARS-CoV-2 prefusion-stabilized trimeric spike ectodomain (S2Pecto) (SARS-CoV-2), P0DTC2. Nature of the experiment: hACE2 blocking ELISA on coated S2Pecto; competitor hACE2.
For experiment [3], the target named is T1, SARS-CoV-2 prefusion-stabilized …. Nature of the experiment: ELISA on coated antigen.

B1: COV2-2165 (antibody, V domains shown)
VH: EVQLVESGGGLVQPGGSLRLSCAASGLTVRSNYMTWVRQTPGKGLEWVSVIYSGGSTFYADSVKGRFTISRDNSKNTVYLQMNSLRAEDTAVYYCARDLVTYGLDVWGQGTTVTVSS
VL: DIQLTQSPSFLSASVGDRVTITCRASQGISNYLAWYQQKPGTAPNLLIYAASTLQSGVPSRFSGSGSGTEFTLTISSLQPEDFATYYCQLLNSHPLTFGQGTRLEIK
B1: in experiment [1], the ELISA OD 450 nm was found to be 4.2 OD 450 nm. In experiment [2], the IC50 (usually the point on the concentration scale where inhibition reaches its midpoint) stood at 0.062 µg/mL. Further, the EC50 (in general, the concentration at which the effect is half-maximal) in experiment [3] turned out to be 0.0014 µg/mL.

B2: COV2-2952 (antibody, V domains shown)
VH: B1 VH
VL: B1 VL
As for B2, the ELISA OD 450 nm in experiment [1] amounted to 3.54 OD 450 nm.

B3: COV2-2391 (antibody, V domains shown)
VH: QVQLVQSGAEVKKPGASVKVSCKASGYTFGSFDINWVRQATGQGLEWMGRMNSNSGNTAYAQKFQGRVTMTRDTSTNTAYMELSSLRSEDTAMYYCARMRSGWPTHGRPDDFWGRGTLVTVSS
VL: QSVLTQAPSASGTPGQRVTISCSGSNSNIGSYTINWYQQLPGTAPKLLIYGNDQRTSGVPDRFSGSKFGTSASLAISGLQSEDENNYYCAVWDDSLNGLVFGGGTKLTVL
For B3, the ELISA OD 450 nm in experiment [1] came out at 3.57 OD 450 nm.

B4: COV2-2096 (antibody, V domains shown)
VH: B3 VH
VL: B3 VL
In experiment [1], B4 returned an ELISA OD 450 nm of 4.3 OD 450 nm. In experiment [2], this molecule yielded an IC50 of 0.067 µg/mL. This molecule also gave an EC50 in experiment [3] of 0.001 µg/mL.
